Test results published in patent publication US20060166868A1, “Vegf peptides and their use” (priority 2002, published 2006).
No end group written: not given here.

Columns and labels:
KDR [1] = target: T1, KDR (Homo sapiens, UniProt P35968); experiment: 125I-VEGF165 binding to PAE/KDR cells; conditions: FIG. 2; cells expressing only KDR
T1 construct: expressed in transfected cells; host or cells: porcine aortic endothelial cells (PAE/KDR)

Neuropilin-1 (NP-1) = target: T2, Neuropilin-1 (NP-1) (Homo sapiens, UniProt O14786); experiment: 125I-VEGF165 binding to PAE/NP1 cells
T2 construct: expressed in transfected cells; host or cells: porcine aortic endothelial cells (PAE/NP1)

[2] = tested on: human umbilical vein endothelial cells (HUVEC) which express NP-1, KDR and Flt-1; experiment: radiolabelled VEGF binding to HUVEC; conditions: FIG. 2
Flt-1 = target: T3, Flt-1 (Homo sapiens, UniProt P17948); experiment: 125I-VEGF165 binding to PAE/Flt-1 cells; conditions: FIG. 2; cells expressing only Flt-1
T3 construct: expressed in transfected cells; host or cells: porcine aortic endothelial cells (PAE/Flt-1)

KDR [3] = experiment: KDR Phosphorylation Assay; format: cell-based; conditions: FIG. 3; peptide at 10, 30 and 100 mM for 15 minutes, then 25 ng/ml VEGF for 10 minutes; immunoblot
Method: Cells were pretreated with peptide at 10, 30 and 100 mM for 15 minutes followed by treatment with 25 ng/ml VEGF for 10 minutes, and cells were immediately extracted by lysis buffer (64 mM Tris-HCl, pH 6.8, 0.2 mM Na3VO4, 2% SDS, 10% glycerol, 0.1 mM AEBSF, […] leupeptin). KDR phosphorylation was determined by immunoblotting cell extracts with antibodies which recognise either KDR phosphorylated at Tyrosines 1054 and 1059 (purchased from Oncogene Research Products Inc.) or total KDR (purchased from Santa Cruz Inc.). Immunoreactive bands were visualised by chemiluminescence using horseradish peroxidase-conjugated anti-rabbit IgG and ECL reagent.

NP-1 = target: T4, NP-1 (Homo sapiens, UniProt O14786); experiment: radiolabelled VEGF binding to MDA-MB-231 cells; conditions: FIG. 4; cells naturally express only NP-1 receptors for VEGF
T4 construct: the breast carcinoma cell line MDA-MB-231, that naturally expresses only NP-1 receptors for VEGF; endogenous in cells; host or cells: MDA-MB-231

HUVECs = conditions: Soker et al, J. Biol. Chem. 272 (1997); cited from earlier work

T2 sequence (O14786 22-923, species assumed): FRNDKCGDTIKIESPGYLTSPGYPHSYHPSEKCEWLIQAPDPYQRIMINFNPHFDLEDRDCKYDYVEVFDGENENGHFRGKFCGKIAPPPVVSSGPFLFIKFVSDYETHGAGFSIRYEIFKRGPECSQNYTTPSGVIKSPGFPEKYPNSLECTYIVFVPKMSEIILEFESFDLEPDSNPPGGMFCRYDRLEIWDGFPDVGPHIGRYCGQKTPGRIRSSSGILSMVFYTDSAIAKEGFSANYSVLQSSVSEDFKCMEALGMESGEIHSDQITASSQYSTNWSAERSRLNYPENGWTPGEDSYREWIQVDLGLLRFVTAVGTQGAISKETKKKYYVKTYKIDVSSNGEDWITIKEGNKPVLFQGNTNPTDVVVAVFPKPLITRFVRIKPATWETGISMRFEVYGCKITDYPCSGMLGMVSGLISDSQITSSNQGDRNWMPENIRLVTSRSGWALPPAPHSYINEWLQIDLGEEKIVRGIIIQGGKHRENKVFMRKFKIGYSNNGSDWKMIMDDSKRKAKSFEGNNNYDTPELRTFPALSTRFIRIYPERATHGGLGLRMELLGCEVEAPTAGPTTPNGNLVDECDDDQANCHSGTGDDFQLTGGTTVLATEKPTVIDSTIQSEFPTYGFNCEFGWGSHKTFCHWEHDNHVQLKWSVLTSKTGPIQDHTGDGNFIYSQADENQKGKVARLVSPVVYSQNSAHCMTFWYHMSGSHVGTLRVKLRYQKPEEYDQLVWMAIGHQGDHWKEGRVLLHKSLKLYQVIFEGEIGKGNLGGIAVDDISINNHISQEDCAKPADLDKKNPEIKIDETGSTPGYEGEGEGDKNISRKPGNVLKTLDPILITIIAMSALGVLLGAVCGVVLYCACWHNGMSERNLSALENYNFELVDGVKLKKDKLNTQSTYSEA
T1 sequence (P35968 20-1356, species assumed): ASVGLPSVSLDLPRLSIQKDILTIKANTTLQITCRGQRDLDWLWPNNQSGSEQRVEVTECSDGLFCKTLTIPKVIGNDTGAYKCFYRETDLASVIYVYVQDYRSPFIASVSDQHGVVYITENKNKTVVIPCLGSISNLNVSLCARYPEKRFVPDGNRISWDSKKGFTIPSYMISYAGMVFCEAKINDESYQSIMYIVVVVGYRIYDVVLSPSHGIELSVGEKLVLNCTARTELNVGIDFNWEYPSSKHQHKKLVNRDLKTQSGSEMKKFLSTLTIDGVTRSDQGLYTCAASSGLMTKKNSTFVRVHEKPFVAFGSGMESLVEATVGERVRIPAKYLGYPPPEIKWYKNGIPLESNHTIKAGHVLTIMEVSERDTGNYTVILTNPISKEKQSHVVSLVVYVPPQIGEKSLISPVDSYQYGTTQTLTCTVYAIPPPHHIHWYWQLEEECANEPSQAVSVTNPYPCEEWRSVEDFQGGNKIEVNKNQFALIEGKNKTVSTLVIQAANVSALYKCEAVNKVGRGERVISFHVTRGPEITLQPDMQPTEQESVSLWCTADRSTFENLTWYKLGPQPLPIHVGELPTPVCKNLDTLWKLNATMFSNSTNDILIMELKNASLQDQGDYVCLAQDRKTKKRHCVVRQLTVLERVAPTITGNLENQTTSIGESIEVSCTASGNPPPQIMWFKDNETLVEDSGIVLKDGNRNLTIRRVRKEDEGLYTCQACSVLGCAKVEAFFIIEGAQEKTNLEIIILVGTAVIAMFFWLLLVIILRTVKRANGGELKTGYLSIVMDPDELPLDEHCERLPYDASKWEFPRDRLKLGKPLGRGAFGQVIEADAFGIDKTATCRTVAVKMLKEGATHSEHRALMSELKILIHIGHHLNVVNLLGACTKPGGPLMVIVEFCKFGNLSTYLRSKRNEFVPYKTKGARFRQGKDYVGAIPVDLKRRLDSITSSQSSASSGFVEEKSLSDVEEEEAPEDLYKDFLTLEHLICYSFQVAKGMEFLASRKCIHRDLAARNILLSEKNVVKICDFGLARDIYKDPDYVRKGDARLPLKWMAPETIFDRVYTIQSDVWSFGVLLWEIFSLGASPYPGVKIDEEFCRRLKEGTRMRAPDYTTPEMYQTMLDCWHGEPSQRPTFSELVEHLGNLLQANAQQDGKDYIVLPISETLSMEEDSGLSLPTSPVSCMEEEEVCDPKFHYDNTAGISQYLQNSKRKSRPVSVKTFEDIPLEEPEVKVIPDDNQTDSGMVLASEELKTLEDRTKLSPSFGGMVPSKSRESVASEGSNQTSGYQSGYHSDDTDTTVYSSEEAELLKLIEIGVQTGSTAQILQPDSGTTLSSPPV
T3 sequence (P17948 27-1338, species assumed): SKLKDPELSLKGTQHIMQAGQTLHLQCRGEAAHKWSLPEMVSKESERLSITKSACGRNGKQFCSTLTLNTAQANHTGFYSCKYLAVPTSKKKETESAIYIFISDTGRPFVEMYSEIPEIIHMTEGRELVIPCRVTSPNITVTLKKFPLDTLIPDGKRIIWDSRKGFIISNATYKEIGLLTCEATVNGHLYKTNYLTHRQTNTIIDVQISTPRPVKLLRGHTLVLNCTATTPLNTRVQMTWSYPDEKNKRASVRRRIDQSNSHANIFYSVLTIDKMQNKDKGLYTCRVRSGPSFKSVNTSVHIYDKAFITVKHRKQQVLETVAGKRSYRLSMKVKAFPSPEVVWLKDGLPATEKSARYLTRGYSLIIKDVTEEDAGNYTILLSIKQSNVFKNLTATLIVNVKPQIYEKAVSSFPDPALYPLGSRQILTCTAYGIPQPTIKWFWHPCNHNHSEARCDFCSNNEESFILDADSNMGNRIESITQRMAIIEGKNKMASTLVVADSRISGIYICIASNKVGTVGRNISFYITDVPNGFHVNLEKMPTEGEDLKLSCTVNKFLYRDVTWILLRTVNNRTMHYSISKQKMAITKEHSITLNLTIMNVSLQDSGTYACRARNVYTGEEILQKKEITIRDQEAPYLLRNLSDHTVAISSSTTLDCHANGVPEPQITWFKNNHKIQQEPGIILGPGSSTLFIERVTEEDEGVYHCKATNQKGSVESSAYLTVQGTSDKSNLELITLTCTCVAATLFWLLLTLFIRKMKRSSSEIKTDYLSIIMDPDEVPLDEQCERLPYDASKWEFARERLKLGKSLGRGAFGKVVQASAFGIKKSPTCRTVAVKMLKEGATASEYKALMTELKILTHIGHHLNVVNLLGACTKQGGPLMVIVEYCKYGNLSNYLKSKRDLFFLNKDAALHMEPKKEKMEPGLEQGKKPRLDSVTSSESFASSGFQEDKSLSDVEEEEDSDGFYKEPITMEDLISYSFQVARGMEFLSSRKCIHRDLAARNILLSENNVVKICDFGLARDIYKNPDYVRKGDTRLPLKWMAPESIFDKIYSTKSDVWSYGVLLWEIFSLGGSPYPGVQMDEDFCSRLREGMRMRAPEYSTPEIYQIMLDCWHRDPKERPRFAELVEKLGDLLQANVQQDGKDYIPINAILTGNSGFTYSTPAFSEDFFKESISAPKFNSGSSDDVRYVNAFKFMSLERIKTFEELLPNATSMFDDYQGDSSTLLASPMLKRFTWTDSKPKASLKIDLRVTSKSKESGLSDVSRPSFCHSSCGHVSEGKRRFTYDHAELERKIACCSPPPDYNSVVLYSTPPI
T4 sequence (O14786 22-923): as the sequence (O14786 22-923, species assumed) above

Row | Substance | effect on 125I-VEGF165 binding to PAE/KDR cells (KDR [1]) | effect on 125I-VEGF165 binding to PAE/NP1 cells (Neuropilin-1 (NP-1); FIG. 1, peptide 100 μM, porcine aortic endothelial cells expressing only NP-1) | inhibition of 125I-VEGF165 binding to PAE/NP-1 cells (Neuropilin-1 (NP-1); FIG. 2) | radiolabelled VEGF binding to HUVEC [2] | effect on 125I-VEGF165 binding to PAE/Flt-1 cells (Flt-1) | VEGF-induced KDR phosphorylation (KDR [3]) | binding of radiolabelled VEGF to breast carcinoma cell line MDA-MB-231 (NP-1) | inhibition of VEGF binding to HUVECs (HUVECs)
1 | EG3287: bicyclic form of SEQ ID NO. 2, SCKNTDSRCKARQLELNERTCRCDKPRR, amino acids 138 to 165 within VEGF (not fully specified (N-terminus, C-terminus, bridges); also: bicyclic, two disulfides, pairing not given here; listed as Homo sapiens) | no effect | inhibition | specific, selective inhibition | inhibited | no effect | inhibited | inhibited | –
2 | SEQ ID NO. 1: CSCKNTDSRCKARQLELNERTCRC, shortest active peptide of Soker et al; amino acids 22-44 of exon 7 and amino acid 1 of exon 8 (listed as Homo sapiens) | – | – | – | – | – | – | – | active
